In publication PMC5064014, “SUMOylated NKAP is essential for chromosome alignment by anchoring CENP-E to kinetochores” (Nature Communications, 2016):

Target: T1, human His-Bub3 full-length recombinant protein (human, UniProt O43684 1-328)
T1 construct: Bub3, human, full-length recombinant protein; also called Recombinant His-Bub3; source: bought: Abcam (ab139802)
Experiment: pull-down; recombinant His-Bub3 incubated with GST, GST-NKAP and its deletion mutants; 50 mM Tris–HCl pH 7.5, 150 mM NaCl, 1 mM EDTA, 0.3 mM dithiothreitol, 0.1% NP-40; overnight at 4 °C; bound protein by immunoblot
Conditions: both partners purified

T1 sequence (O43684 whole entry): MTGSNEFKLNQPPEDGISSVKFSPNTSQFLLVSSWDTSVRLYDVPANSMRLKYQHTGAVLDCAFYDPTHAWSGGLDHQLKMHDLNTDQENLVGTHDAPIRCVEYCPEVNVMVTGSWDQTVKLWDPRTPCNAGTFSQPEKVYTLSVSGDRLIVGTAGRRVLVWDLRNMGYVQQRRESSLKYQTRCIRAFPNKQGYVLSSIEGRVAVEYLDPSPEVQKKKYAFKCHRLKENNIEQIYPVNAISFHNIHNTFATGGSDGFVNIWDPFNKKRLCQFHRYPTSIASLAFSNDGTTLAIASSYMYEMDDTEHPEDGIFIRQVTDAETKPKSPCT

B1: GST-NKAP deletion mutant aa 1–138 (domain or fragment, human, UniProt Q8N5F7 1-138, looked up)
chain: MAPVSGSRSPDREASGSGGRRRSSSKSPKPSKSARSPRGRRSRSHSCSRSGDRNGLTHQLGGLSQGSRNQSYRSRSRSRSRERPSAPRGIPFASASSSVYYGSYSRPYGSDKPWPSLLDKEREESLRQKRLSERERIG
notes: The text names the region; source: E. coli DH5α, purified (glutathione Sepharose 4B)
B1: binds.

B2: GST-NKAP deletion mutant aa 139–276 (domain or fragment, human, UniProt Q8N5F7 139-276, looked up)
chain: ELGAPEVWGLSPKNPEPDSDEHTPVEDEEPKKSTTSASTSEEEKKKKSSRSKERSKKRRKKKSSKRKHKKYSEDSDSDSDSETDSSDEDNKRRAKKAKKKEKKKKHRSKKYKKKRSKKSRKESSDSSSKESQEEFLEN
notes: as for B1
B2: binds.
